The test system of this series is Escherichia coli TOP10. The experiment in a line: shrunken log2 fold change of peptide-encoding DNA abundance (4.5 h post-induction vs induction); higher = less antimicrobial activity (less host growth inhibition). As to conditions: time post-induction: 4.5 h; library: site-saturation at positions 5, 18, 19, 20.
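Note: peptides expressed intracellularly from a pBAD plasmid library in pooled LB shake-flask culture, induced with 0.3% L-arabinose, DNA abundance read by NGS, three biological replicates, DESeq2 with apeglm shrinkage.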

As for RRIRMRPPRLPRPRPRPLEAPRP, the “shrunken log2 fold change” value was 2.46.

As to RRIRLRPPRLPRPRPRPFKTPRP, the “shrunken log2 fold change” value was -0.501.

For the sequence RRIRKRPPRLPRPRPRPTFGPRP, the “shrunken log2 fold change” value amounted to 0.0674.

In the case of RRIRWRPPRLPRPRPRPLHDPRP, the “shrunken log2 fold change” value stood at 0.387.

In the case of RRIRRRPPRLPRPRPRPVGRPRP, the “shrunken log2 fold change” value was found to be 0.472.

Turning to RRIRVRPPRLPRPRPRPDLCPRP, the “shrunken log2 fold change” value is 0.0475.

Regarding RRIRLRPPRLPRPRPRPRDKPRP, the “shrunken log2 fold change” value stood at 0.133.

For RRIRLRPPRLPRPRPRPVVWPRP, the “shrunken log2 fold change” value is 0.547.

Consider RRIRHRPPRLPRPRPRPSGIPRP, for which the “shrunken log2 fold change” value was -0.0153.

Regarding RRIRLRPPRLPRPRPRPYQFPRP, the “shrunken log2 fold change” value was -0.0128.

For RRIRSRPPRLPRPRPRPVMDPRP, the “shrunken log2 fold change” value was -0.496.

RRIRSRPPRLPRPRPRPCWNPRP: the “shrunken log2 fold change” value is -0.296.

As for RRIRDRPPRLPRPRPRPTYRPRP, the “shrunken log2 fold change” value was -0.224.

As for RRIRYRPPRLPRPRPRPYKQPRP, the “shrunken log2 fold change” value was -0.025.

As to RRIRNRPPRLPRPRPRPTKGPRP, the “shrunken log2 fold change” value is 0.0423.

For RRIRARPPRLPRPRPRPVITPRP, the “shrunken log2 fold change” value was -0.021.

On to RRIRHRPPRLPRPRPRPAKYPRP, for which the “shrunken log2 fold change” value is 0.136.

With RRIRMRPPRLPRPRPRPMAIPRP, the “shrunken log2 fold change” value was found to be 0.227.

On to RRIRWRPPRLPRPRPRPMLEPRP, for which the “shrunken log2 fold change” value was -0.0685.

On to RRIRSRPPRLPRPRPRPQQKPRP, for which the “shrunken log2 fold change” value was -0.138.

Take RRIRARPPRLPRPRPRPMQEPRP: the “shrunken log2 fold change” value was found to be 0.421.

For RRIRTRPPRLPRPRPRPHFHPRP, the “shrunken log2 fold change” value was -0.589.

On to RRIRPRPPRLPRPRPRPRHDPRP, for which the “shrunken log2 fold change” value is 0.186.

Regarding RRIRPRPPRLPRPRPRPKDGPRP, the “shrunken log2 fold change” value came to 0.0462.

Turning to RRIRYRPPRLPRPRPRPHFMPRP, the “shrunken log2 fold change” value is -0.0918.

In the case of RRIRNRPPRLPRPRPRPTNDPRP, the “shrunken log2 fold change” value is 0.0554.

RRIRPRPPRLPRPRPRPYCEPRP: the “shrunken log2 fold change” value was -0.337.

Consider RRIRYRPPRLPRPRPRPTYGPRP, for which the “shrunken log2 fold change” value was -0.196.

As for RRIRFRPPRLPRPRPRPVTKPRP, the “shrunken log2 fold change” value was 0.19.

On to RRIRDRPPRLPRPRPRPPDVPRP, for which the “shrunken log2 fold change” value turned out to be 0.302.

Consider RRIRCRPPRLPRPRPRPAATPRP, for which the “shrunken log2 fold change” value stood at 0.776.

As to RRIRPRPPRLPRPRPRPHSDPRP, the “shrunken log2 fold change” value was 0.0137.

Take RRIRMRPPRLPRPRPRPDYIPRP: the “shrunken log2 fold change” value was -0.354.

Consider RRIRVRPPRLPRPRPRPKDQPRP, for which the “shrunken log2 fold change” value was found to be 0.0584.

Consider RRIRMRPPRLPRPRPRPVFCPRP, for which the “shrunken log2 fold change” value amounted to 0.388.

As to RRIRQRPPRLPRPRPRPKAYPRP, the “shrunken log2 fold change” value was 0.0697.

For RRIRMRPPRLPRPRPRPFPSPRP, the “shrunken log2 fold change” value was -0.18.

As to RRIRQRPPRLPRPRPRPWNFPRP, the “shrunken log2 fold change” value is -0.15.

Take RRIRKRPPRLPRPRPRPIADPRP: the “shrunken log2 fold change” value is -0.125.

Consider RRIRRRPPRLPRPRPRPCYQPRP, for which the “shrunken log2 fold change” value is -0.16.

For RRIRNRPPRLPRPRPRPHPWPRP, the “shrunken log2 fold change” value was determined as 0.0589.

Take RRIRFRPPRLPRPRPRPVSEPRP: the “shrunken log2 fold change” value came to 0.114.

For RRIRVRPPRLPRPRPRPNQSPRP, the “shrunken log2 fold change” value is 0.00904.

With RRIRSRPPRLPRPRPRPRGLPRP, the “shrunken log2 fold change” value came out at 0.461.

As to RRIRVRPPRLPRPRPRPDRWPRP, the “shrunken log2 fold change” value was 0.478.

For RRIRLRPPRLPRPRPRPHKVPRP, the “shrunken log2 fold change” value was -0.18.

As to RRIRYRPPRLPRPRPRPPYFPRP, the “shrunken log2 fold change” value was -0.262.

RRIRYRPPRLPRPRPRPEPQPRP: the “shrunken log2 fold change” value was -0.777.

In the case of RRIRHRPPRLPRPRPRPQTHPRP, the “shrunken log2 fold change” value was -0.143.

As for RRIRTRPPRLPRPRPRPMNVPRP, the “shrunken log2 fold change” value came out at 0.0707.

Turning to RRIRQRPPRLPRPRPRPRERPRP, the “shrunken log2 fold change” value came to 0.553.

Consider RRIRERPPRLPRPRPRPRHSPRP, for which the “shrunken log2 fold change” value is -0.137.

On to RRIRLRPPRLPRPRPRPQEDPRP, for which the “shrunken log2 fold change” value was -0.0336.

With RRIRGRPPRLPRPRPRPIGDPRP, the “shrunken log2 fold change” value is 0.667.

Take RRIRWRPPRLPRPRPRPNYEPRP: the “shrunken log2 fold change” value was -0.222.

Turning to RRIRLRPPRLPRPRPRPEHCPRP, the “shrunken log2 fold change” value was found to be 0.0119.

RRIRVRPPRLPRPRPRPLVSPRP: the “shrunken log2 fold change” value is 0.339.

As for RRIRTRPPRLPRPRPRPSQLPRP, the “shrunken log2 fold change” value was -0.453.

In the case of RRIRERPPRLPRPRPRPLLMPRP, the “shrunken log2 fold change” value came out at 0.0107.

Regarding RRIRDRPPRLPRPRPRPWEMPRP, the “shrunken log2 fold change” value turned out to be 0.335.

In the case of RRIRTRPPRLPRPRPRPMMLPRP, the “shrunken log2 fold change” value is 0.00466.

RRIRKRPPRLPRPRPRPRAHPRP: the “shrunken log2 fold change” value worked out at 0.68.

In the case of RRIRYRPPRLPRPRPRPPDDPRP, the “shrunken log2 fold change” value is 0.141.

Consider RRIRSRPPRLPRPRPRPYTLPRP, for which the “shrunken log2 fold change” value is -0.146.

On to RRIRYRPPRLPRPRPRPPQNPRP, for which the “shrunken log2 fold change” value came to 0.191.

As to RRIRIRPPRLPRPRPRPMYPPRP, the “shrunken log2 fold change” value is -0.0642.

For the sequence RRIRKRPPRLPRPRPRPQYPPRP, the “shrunken log2 fold change” value was found to be 0.131.

For the sequence RRIRSRPPRLPRPRPRPPCMPRP, the “shrunken log2 fold change” value was 0.464.

Turning to RRIRERPPRLPRPRPRPYMSPRP, the “shrunken log2 fold change” value is -0.0135.

On to RRIRVRPPRLPRPRPRPSAFPRP, for which the “shrunken log2 fold change” value worked out at 0.0827.

On to RRIRNRPPRLPRPRPRPYIEPRP, for which the “shrunken log2 fold change” value was -0.275.

For the sequence RRIRVRPPRLPRPRPRPDRSPRP, the “shrunken log2 fold change” value is -0.039.

Take RRIRWRPPRLPRPRPRPTKCPRP: the “shrunken log2 fold change” value was -0.121.

In the case of RRIRTRPPRLPRPRPRPAEHPRP, the “shrunken log2 fold change” value was -0.0944.

Consider RRIRRRPPRLPRPRPRPIIPPRP, for which the “shrunken log2 fold change” value is -0.36.

For RRIRFRPPRLPRPRPRPAATPRP, the “shrunken log2 fold change” value is 0.372.

As to RRIRNRPPRLPRPRPRPEWTPRP, the “shrunken log2 fold change” value was -0.0178.

Consider RRIRSRPPRLPRPRPRPHWKPRP, for which the “shrunken log2 fold change” value came out at 0.0398.

As for RRIRPRPPRLPRPRPRPMTTPRP, the “shrunken log2 fold change” value is -0.104.

For RRIRQRPPRLPRPRPRPNMMPRP, the “shrunken log2 fold change” value was -0.442.

In the case of RRIRNRPPRLPRPRPRPKECPRP, the “shrunken log2 fold change” value was found to be 0.00801.

With RRIRGRPPRLPRPRPRPGQMPRP, the “shrunken log2 fold change” value amounted to 0.483.

For the sequence RRIRGRPPRLPRPRPRPKFQPRP, the “shrunken log2 fold change” value was found to be 0.528.

With RRIRIRPPRLPRPRPRPGFQPRP, the “shrunken log2 fold change” value is -0.106.

For the sequence RRIRGRPPRLPRPRPRPCHIPRP, the “shrunken log2 fold change” value is -0.028.

For RRIRMRPPRLPRPRPRPKHQPRP, the “shrunken log2 fold change” value was found to be 0.634.

In the case of RRIRDRPPRLPRPRPRPNIRPRP, the “shrunken log2 fold change” value is -0.0481.

For the sequence RRIRIRPPRLPRPRPRPLHHPRP, the “shrunken log2 fold change” value was -0.148.

Turning to RRIRNRPPRLPRPRPRPLKLPRP, the “shrunken log2 fold change” value is -0.207.

As for RRIRYRPPRLPRPRPRPNKPPRP, the “shrunken log2 fold change” value was -0.18.

Turning to RRIRLRPPRLPRPRPRPEALPRP, the “shrunken log2 fold change” value is -0.00171.

For RRIRYRPPRLPRPRPRPTIVPRP, the “shrunken log2 fold change” value was -0.0265.

RRIRWRPPRLPRPRPRPPVSPRP: the “shrunken log2 fold change” value is 0.289.

In the case of RRIRGRPPRLPRPRPRPQKKPRP, the “shrunken log2 fold change” value stood at 0.0788.

Turning to RRIRMRPPRLPRPRPRPFHVPRP, the “shrunken log2 fold change” value is -0.726.

In the case of RRIRVRPPRLPRPRPRPYGVPRP, the “shrunken log2 fold change” value is -0.153.

For the sequence RRIRKRPPRLPRPRPRPNTYPRP, the “shrunken log2 fold change” value came to 0.0436.

For the sequence RRIRLRPPRLPRPRPRPHWMPRP, the “shrunken log2 fold change” value is -0.0826.

In the case of RRIRTRPPRLPRPRPRPGCLPRP, the “shrunken log2 fold change” value came to 0.172.

For the sequence RRIRKRPPRLPRPRPRPPLIPRP, the “shrunken log2 fold change” value came to 0.285.

In the case of RRIRERPPRLPRPRPRPGDRPRP, the “shrunken log2 fold change” value is 0.172.

As for RRIRYRPPRLPRPRPRPIFKPRP, the “shrunken log2 fold change” value was -0.133.

With RRIRLRPPRLPRPRPRPMIPPRP, the “shrunken log2 fold change” value was -0.0974.

Take RRIRIRPPRLPRPRPRPVSYPRP: the “shrunken log2 fold change” value is -0.599.

Turning to RRIRKRPPRLPRPRPRPLYTPRP, the “shrunken log2 fold change” value is -0.288.

With RRIRQRPPRLPRPRPRPTCSPRP, the “shrunken log2 fold change” value is -0.353.

Turning to RRIRNRPPRLPRPRPRPRVMPRP, the “shrunken log2 fold change” value was 0.0236.

Regarding RRIRFRPPRLPRPRPRPYHKPRP, the “shrunken log2 fold change” value was -0.6.

RRIRNRPPRLPRPRPRPPDEPRP: the “shrunken log2 fold change” value amounted to 1.28.

For the sequence RRIRPRPPRLPRPRPRPVKLPRP, the “shrunken log2 fold change” value is -0.0669.

With RRIRLRPPRLPRPRPRPNCPPRP, the “shrunken log2 fold change” value is -0.213.

As to RRIRCRPPRLPRPRPRPIYYPRP, the “shrunken log2 fold change” value was -0.653.

Turning to RRIRYRPPRLPRPRPRPTWTPRP, the “shrunken log2 fold change” value was 0.0315.

Take RRIRKRPPRLPRPRPRPLKEPRP: the “shrunken log2 fold change” value is 0.0921.

Consider RRIRIRPPRLPRPRPRPKDHPRP, for which the “shrunken log2 fold change” value is -0.222.

On to RRIRRRPPRLPRPRPRPIIEPRP, for which the “shrunken log2 fold change” value was 0.0476.

For RRIRKRPPRLPRPRPRPEWMPRP, the “shrunken log2 fold change” value is -0.0537.

In the case of RRIRWRPPRLPRPRPRPAWIPRP, the “shrunken log2 fold change” value was determined as 0.035.

Regarding RRIRGRPPRLPRPRPRPRSWPRP, the “shrunken log2 fold change” value amounted to 1.19.

Take RRIRQRPPRLPRPRPRPLSFPRP: the “shrunken log2 fold change” value is -0.415.

As for RRIRFRPPRLPRPRPRPGDSPRP, the “shrunken log2 fold change” value is -0.305.

Turning to RRIRKRPPRLPRPRPRPNQHPRP, the “shrunken log2 fold change” value was 0.0449.

As for RRIRMRPPRLPRPRPRPDYYPRP, the “shrunken log2 fold change” value is -0.111.

With RRIRIRPPRLPRPRPRPSRPPRP, the “shrunken log2 fold change” value was -0.00676.

In the case of RRIRHRPPRLPRPRPRPDYAPRP, the “shrunken log2 fold change” value is -0.171.

The values are drawn from the supplement of paper PMC9112550, “Optimization of the antimicrobial peptide Bac7 by deep mutational scanning” (BMC Biology, 2022).
